Measurements published in paper PMC5009721.

Tests used:
[1] = target: T1, RNA polymerase II;TBP (TATA-binding protein);TFIIB;TFIIF (human (HeLa cells);human;human;human, UniProt P24928;P30876;P19387;O15514;P19388;P61218;P62487;P52434;P36954;P62875;P52435;P53 …, |||); assay: single-molecule TIRF colocalization, immobilized Pol II
[2] = target: T1, RNA polymerase II;TBP (TATA-binding …); assay: EMSA
[3] = target: T2, RNA polymerase II (human (HeLa cells), UniProt P24928;P30876;P19387;O15514;P19388;P61218;P62487;P52434;P36954;P62875;P52435;P53 …); assay: EMSA
[4] = target: T1, RNA polymerase II;TBP (TATA-binding …); assay: single-molecule TIRF colocalization, immobilized Pol II; remark: listed apart in the source
[5] = target: T2, RNA polymerase II; assay: as above

T1 sequence (P20226 whole entry, chain 13 of 2): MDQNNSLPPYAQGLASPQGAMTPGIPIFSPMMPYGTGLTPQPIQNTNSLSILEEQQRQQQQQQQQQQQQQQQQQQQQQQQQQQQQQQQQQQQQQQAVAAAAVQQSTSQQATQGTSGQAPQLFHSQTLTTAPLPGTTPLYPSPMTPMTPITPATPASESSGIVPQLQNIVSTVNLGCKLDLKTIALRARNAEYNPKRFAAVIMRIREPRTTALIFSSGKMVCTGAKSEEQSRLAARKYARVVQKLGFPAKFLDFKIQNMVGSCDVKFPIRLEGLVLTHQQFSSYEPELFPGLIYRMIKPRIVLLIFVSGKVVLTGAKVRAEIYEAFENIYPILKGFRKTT
T1 sequence (Q00403 whole entry, chain 14 of 2, further chain): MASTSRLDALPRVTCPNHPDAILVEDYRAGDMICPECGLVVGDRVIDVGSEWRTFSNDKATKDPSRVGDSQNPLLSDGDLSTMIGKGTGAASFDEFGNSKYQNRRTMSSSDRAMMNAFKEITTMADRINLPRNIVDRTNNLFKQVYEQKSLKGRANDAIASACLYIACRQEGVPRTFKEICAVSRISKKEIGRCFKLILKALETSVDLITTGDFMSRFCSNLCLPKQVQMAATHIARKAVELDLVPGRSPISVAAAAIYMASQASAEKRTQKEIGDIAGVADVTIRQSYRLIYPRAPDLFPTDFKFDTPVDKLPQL

B1: 18 bp TATA DNA (dsDNA)
DNA 1: CGTCCCTTTTATAGCCTG
DNA 2: CAGGCTATAAAAGGGACG
- binding result [1]: binds

B2: AdML three-piece heteroduplex (-40 to +37), Cy3/Cy5, quencher (dsDNA)
DNA 1: CCTGAGGTTAGTGTGAGTAGTGATTAAAGATAGTGATGAGGACGAACGCGCCCCCACCCCCTTTTATAGCCCCCCTT
DNA 2: AAGGGGGGCTATAAAAGGGGGTGGGGGCGCGAAGCAGGAGTAGACTATCTTTAATCACTA
DNA 3: CTCACACTAACCTCAGG
- binding result [2]: binds
- binding result [3]: binds

B3: AdML three-piece heteroduplex (-40 to +37), Cy3/Cy5, no quencher, no biotin (dsDNA)
DNA 1: B2 DNA 1
DNA 2: B2 DNA 2
DNA 3: CTCACACTAACCTCAGG
- binding result [4]: binds
- binding result [5]: binds
